± gives the uncertainty stated by the source.
Assay: self-splicing fitness, log relative to wild type (ln ratio); higher = more splicing; Tetrahymena group I intron in knt gene, E. coli kanamycin selection, DiMSum; sequences stand for … in CUCUCU…GGAGGGAAAAGUUAUCAGGCAUGCACCUGGUAGCUAGUCUUUAAACCAAUAGAUUGCAUCGGUUUAAAAGGCAAGACCGUCAAAUUGCGGGAAAGGGGUCAACAGCCGUUCAGUACCAAGUCUCAGGGGAAACUUUGAGAUGGCCUUGCAAAGGGUAUGGUAAUAAGCUGACGGACAUGGUCCUAACCACGCAGCCAAGUCCUAAGUCAACAGAUCUUCUGUUGAUAUGGAUGCAGUUCACAGACUAAAUGUCGGUCGGGGAAGAUGUAUUCUUCUCAUAAGAUAUAGUCGGACCUCUCCUUAAUGGGAGCUAGCGGAUGAAGUGAUGCAACACUGGAGCCGCUGGGAACUAAUUUGUAUGCGAAAGUAUAUUGAUUAGUUUUGGAGUACUCGUGGUCG
Outline: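 DiMSum derived fitness as the error-weighted combination of fold changes across replicates, kanamycin versus no kanamycin, normalised to wild type. E. coli BL21(DE3) held the library, which randomised all eight P1ex-region intron nucleotides within the knt kanamycin-resistance gene on pET-22b(+). Six replicate transformations grew overnight at 37°C or 30°C on LB agar with or without 25 μg/mL kanamycin, also containing 100 μg/mL carbenicillin, 50 μM IPTG and 0.2% rhamnose, and pooled colonies were amplicon-sequenced on an Illumina HiSeq 2500.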

| Sequence | self-splicing fitness (ln) (30 °C) | self-splicing fitness (ln) (37 °C) |
| --- | --- | --- |
| ACGAAGCAAUAUUACGCGUU | -4.06 ± 0.33 | -2 ± 0.21 |
| ACGAAGCAAUAUUACGGAAG | -2.54 ± 0.12 | -2.4 ± 0.19 |
| ACGAAGCAAUAUUACGGCAC | -2.03 ± 0.17 | -0.996 ± 0.24 |
| ACGAAGCAAUAUUACGGCCG | -0.664 ± 0.19 | 0.746 ± 0.29 |
| ACGAAGCAAUAUUACGGGAG | -3.96 ± 0.22 | -2.73 ± 0.17 |
| ACGAAGCAAUAUUACGGUAC | -5.02 ± 0.38 | -2.24 ± 0.17 |
| ACGAAGCAAUAUUACGGUGG | -3.93 ± 0.15 | -2.56 ± 0.23 |
| ACGAAGCAAUAUUACGUAAC | -4.3 ± 0.42 | -2.34 ± 0.49 |
| ACGAAGCAAUAUUACGUAUA | -2.5 ± 0.12 | -2.16 ± 0.12 |
| ACGAAGCAAUAUUACGUCAU | -2.99 ± 0.12 | -2.81 ± 0.14 |
| ACGAAGCAAUAUUACGUUCU | -1.24 ± 0.07 | -0.898 ± 0.081 |
| ACGAAGCAAUAUUACGUUGA | -2.14 ± 0.17 | -1.22 ± 0.12 |
| ACGAAGCAAUAUUACGUUUG | -1.27 ± 0.071 | -1.16 ± 0.11 |
| ACGCAGCAAUAUUACGACAC | -1.83 ± 0.13 | -0.767 ± 0.16 |
| ACGCAGCAAUAUUACGAGCU | -2.76 ± 0.12 | -1.18 ± 0.12 |
| ACGCAGCAAUAUUACGAGGC | -2.95 ± 0.16 | -2.79 ± 0.3 |
| ACGCAGCAAUAUUACGAGUU | -3.67 ± 0.13 | -1.6 ± 0.11 |
| ACGCAGCAAUAUUACGAUAA | -2.84 ± 0.19 | -1.95 ± 0.15 |
| ACGCAGCAAUAUUACGAUAC | -2.56 ± 0.2 | -1.87 ± 0.19 |
| ACGCAGCAAUAUUACGCCCC | -0.51 ± 0.21 | -0.189 ± 0.28 |
| ACGCAGCAAUAUUACGCGAG | -2.56 ± 0.12 | -0.987 ± 0.11 |
| ACGCAGCAAUAUUACGCUUG | -3.56 ± 0.21 | -2.55 ± 0.2 |

| Sequence | self-splicing fitness (ln) (30 °C) | self-splicing fitness (ln) (37 °C) |
| --- | --- | --- |
| ACGCAGCAAUAUUACGGAAG | -3.57 ± 0.24 | -1.75 ± 0.16 |
| ACGCAGCAAUAUUACGGAGC | – | -2.47 ± 0.26 |
| ACGCAGCAAUAUUACGGGAA | -2.99 ± 0.14 | -2 ± 0.12 |
| ACGCAGCAAUAUUACGGGUU | -2.19 ± 0.069 | -1.92 ± 0.092 |
| ACGCAGCAAUAUUACGUAUC | -2.47 ± 0.2 | -1.18 ± 0.17 |
| ACGCAGCAAUAUUACGUCAC | -4.13 ± 0.39 | -2.54 ± 0.19 |
| ACGCAGCAAUAUUACGUCAU | -3.44 ± 0.12 | -1.52 ± 0.11 |
| ACGCAGCAAUAUUACGUCCC | – | -0.268 ± 0.48 |
| ACGCAGCAAUAUUACGUUCU | -1.1 ± 0.082 | -0.958 ± 0.09 |
| ACGCAGCAAUAUUACGUUUU | -3.43 ± 0.12 | -2.11 ± 0.11 |
| ACGGAGCAAUAUUACGAAAC | – | -1.46 ± 0.31 |
| ACGGAGCAAUAUUACGAACG | -2.54 ± 0.16 | -0.693 ± 0.16 |
| ACGGAGCAAUAUUACGAAUU | -3.52 ± 0.26 | -2.5 ± 0.27 |
| ACGGAGCAAUAUUACGACUU | -2.69 ± 0.1 | -1.37 ± 0.11 |
| ACGGAGCAAUAUUACGAUCC | – | -1.94 ± 0.47 |
| ACGGAGCAAUAUUACGCAAC | – | -2.4 ± 0.35 |
| ACGGAGCAAUAUUACGCAGG | -1.72 ± 0.15 | -2.41 ± 0.35 |
| ACGGAGCAAUAUUACGCAGU | -3.19 ± 0.34 | -2.35 ± 0.49 |
| ACGGAGCAAUAUUACGCAUG | -2.65 ± 0.2 | -2.28 ± 0.23 |
| ACGGAGCAAUAUUACGCCGA | -1.94 ± 0.25 | -1.49 ± 0.19 |
| ACGGAGCAAUAUUACGCGCA | -1.39 ± 0.23 | -1.64 ± 0.17 |

From the supplement of paper PMC7877785
